Reference: the RNAGym collection of RNA variant scans (doi:10.7554/elife.80360)

B1: HDV Ribozyme (parent)
chain: GGCCGGCAUGGUCCCAGCCUCCUCGCUGGCGCCGGCUGGGCAACAUUCCGAGGGGACCGUCCCCUCGGUAAUGGCGAAUGGGACCCA

Variants of: B1
Experiment: self-cleavage, relative activity (ratio to wild type); higher = more cleavage; co-transcriptional

Row | Variant | self-cleavage
1 | C36U G52A | 0.785
2 | C36U G52C | 0.779
3 | U37A A87C | 0.17
4 | U37A A87U | 0.325
5 | U37A A87G | 0.0989
6 | C36G C62G | 0.142
7 | C36U C63G | 0.493
8 | C36U C63A | 0.534
9 | U37A A78G | 0.131
10 | C36U A45U | 0.658
11 | C36U A45C | 0.0426
12 | C36U A42U | 0.208
13 | U37A C62G | 0.151
14 | C36G G81A | 0.0545
15 | C36G G81U | 0.114
16 | C36U U60G | 0.508
17 | C36U U60A | 0.727
18 | C36U U60C | 0.959
19 | U37A C84A | 0.128
20 | C36U C49A | 0.795
21 | C36U U46C | 0.481
22 | C36G U72A | 0.138
23 | C36G U72C | 0.0462
24 | C36U G73C | 0.161

Row | Variant | self-cleavage
25 | C36G C57G | 0.162
26 | C36U A87C | 0.778
27 | C36U A87U | 0.769
28 | C36U A78U | 0.154
29 | C36U A78C | 0.173
30 | C36G C84A | 0.0773
31 | C36G C84G | 0.116
32 | C36G C84U | 0.0755
33 | U37A C49U | 0.155
34 | U37A C49G | 0.201
35 | C36G G74A | 0.0779
36 | C36U G53U | 0.852
37 | C36U U47G | 0.665
38 | C36U U47C | 0.467
39 | C36G G76C | 0.0692
40 | U37A A70C | 0.0639
41 | U37A A70U | 0.196
42 | C36U G82A | 0.327
43 | C36U G82C | 0.269
44 | C36U G82U | 0.234
45 | C36U A71C | 0.408
46 | C36U G54U | 0.796
47 | C36U G68A | 0.626
48 | C36U G68C | 0.563

Row | Variant | self-cleavage
49 | C36U U69A | 0.627
50 | C36U A51U | 0.743
51 | C36U A51C | 0.665
52 | C36U C61G | 0.466
53 | C36U C61A | 0.831
54 | C36U C61U | 0.726
55 | C36U U37C | 0.867
56 | C36U G59U | 0.806
57 | U37A C85U | 0.259
58 | U37A C85G | 0.0346
59 | U37A A77U | 0.104
60 | U37A A77G | 0.415
61 | U37A A77C | 0.0426
62 | C36U G38U | 0.147
63 | C36U G38C | 0.113
64 | C36U G81A | 0.24
65 | C36G U47A | 0.177
66 | C36U U65A | 0.665
67 | C36U U65C | 0.712
68 | C36U U65G | 0.582
69 | C36U A43C | 0
70 | C36U A43U | 0.095
71 | C36U G76C | 0.909
72 | C36U G76U | 1.05

Row | Variant | self-cleavage
73 | C36G G38C | 0.208
74 | C36U G67C | 0.831
75 | C36G U60A | 0.0405
76 | C36G U60C | 0.237
77 | C36G G59A | 0.169
78 | U37A C64U | 0.185
79 | U37A C64G | 0.354
80 | C36U A83C | 0.185
81 | C36U A83G | 0.56
82 | U37A C66G | 0.158
83 | C36U C41U | 0.602
84 | C36U C57A | 0.816
85 | C36U A56C | 0.888
86 | C36U G55C | 0.789
87 | C36U U79G | 0.325
88 | C36G U46A | 0.415
89 | C36G G50C | 0.0437
90 | C36G G50A | 0.109
91 | C36U C75G | 0.0959
92 | U37A A45G | 0.125
93 | U37A C58U | 0.405
94 | U37A C58A | 0.225
95 | C36U C85A | 0.732
96 | C36U C85U | 0.88

Row | Variant | self-cleavage
97 | C36U C85G | 0.799
98 | C36U C48U | 0.746
99 | C36G G39U | 0.0652
100 | C36G C66G | 0.237
101 | U37A A51C | 0.217
102 | C36U C86U | 0.712
103 | C36G U79C | 0.154
104 | C36G U79A | 0.095
105 | U37A A42G | 0.0665
106 | C36G G54U | 0.166
107 | U37A C41A | 0.237
108 | C36G G82C | 0.141
109 | C36G G53U | 0.148
110 | C36G G53A | 0.0959
111 | C36U C66U | 0.741
112 | C36U C66A | 0.712
113 | C36U A77G | 0.475
114 | C36U A77C | 0.145
115 | C36U A77U | 0.224
116 | C36G C58G | 0.0594
117 | C36G C58U | 0.128
118 | C36G C58A | 0.201
119 | C36U C62G | 0.222
120 | C36U C62U | 0.911

Row | Variant | self-cleavage
121 | U37A A71G | 0.128
122 | C36G G55U | 0.032
123 | C36G G55C | 0.0314
124 | C36G G80C | 0.108
125 | C36G G80A | 0.0382
126 | C36G G80U | 0.0507
127 | C36U U72A | 0.324
128 | C36U C58U | 0.866
129 | C36U C58A | 0.964
130 | C36G G73U | 0.0326
131 | C36G G40A | 0.157
132 | C36G G40C | 0.185
133 | C36G G40U | 0.108
134 | C36G C63U | 0.213
135 | C36U C44U | 0.197
136 | C36U C44A | 0.166
137 | U37A C63G | 0.17
138 | U37A C63A | 0.116
139 | U37A C75G | 0.0852
140 | U37A C75A | 0.0707
141 | U37A C75U | 0.128
142 | U37A A56U | 0.332
143 | U37A A56G | 0.107
144 | U37A A56C | 0.229

Row | Variant | self-cleavage
145 | C36U G74U | 0.191
146 | C36G C86G | 0.119
147 | C36G C86A | 0.181
148 | U37A C48G | 0.148
149 | U37A C48U | 0.237
150 | C36G C64A | 0.259
151 | C36G U65A | 0.244
152 | C36U C84A | 0.489
153 | C36U C84G | 0.324
154 | C36U C84U | 0.716
155 | C36U G40A | 0.831
156 | C36U G40U | 0.602
157 | C36U C64A | 0.482
158 | C36G C75A | 0.151
159 | C36G C75G | 0.0773
160 | C36G C75U | 0.233
161 | C36U G80U | 0.224
162 | U37A G38A | 0.086
163 | U37A G38U | 0.151
164 | C36U A70G | 0.969
165 | C36U A70C | 0.849
166 | C36G G52U | 0.14
167 | C36U | 0.744
